What was measured:
p35 = biological target: T1, p35 (Mus musculus (Mouse), UniProt P61809 1-307); experiment: immunoblot of striatal lysates from p25 over-expressing mice (FIG. 2B)
T1 construct: also called Cdk5 cofactor p35

[1] = biological target: T2, Cdk5 expressed in HEK293T cells from a transfected eukaryotic expression plasmid (UniProt Q00535 1-292); experiment: immunohistochemical staining of transfected HEK293T cells (FIG. 2C)
T2 construct: also called cyclin-dependent kinase 5

[2] = biological target: T3, p25 generated in rat brain or rat striatal neurons by ischemia (MCAO or OGD) (rat, UniProt P61809 99-307 (mouse entry)); experiment: detection of p25 in stroked rat brain; immunostains of striatum and cortex (FIG. 7D)
T3 construct: Endogenous protein in tissue sections, lysates and primary cultures; also called p25 generated by MCAO; p25 generated in response to focal ischemia
T3 sequence (P61809 99-307 limits assumed): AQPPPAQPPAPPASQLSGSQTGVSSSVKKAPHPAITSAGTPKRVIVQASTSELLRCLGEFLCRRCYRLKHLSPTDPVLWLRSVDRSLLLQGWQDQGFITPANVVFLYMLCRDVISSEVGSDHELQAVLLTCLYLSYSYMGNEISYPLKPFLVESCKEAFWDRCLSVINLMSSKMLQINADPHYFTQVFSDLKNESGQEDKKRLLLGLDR

T1 sequence (P61809 whole entry): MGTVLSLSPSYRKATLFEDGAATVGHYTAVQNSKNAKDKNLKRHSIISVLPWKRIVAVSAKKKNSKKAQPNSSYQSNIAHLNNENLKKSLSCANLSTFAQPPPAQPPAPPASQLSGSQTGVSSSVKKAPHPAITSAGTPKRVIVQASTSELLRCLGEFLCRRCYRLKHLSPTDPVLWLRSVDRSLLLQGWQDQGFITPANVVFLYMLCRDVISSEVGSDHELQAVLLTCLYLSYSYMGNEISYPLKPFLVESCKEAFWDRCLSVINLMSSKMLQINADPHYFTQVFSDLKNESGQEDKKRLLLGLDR

B1: anti-p25 monoclonal antibody 1C4 (antibody, V domains shown)
VH: QIQLEESGPELRKPGETVRISCKASGYTFTTAGMQWVQKMPGTGLKWIGWINTHSGVPKYAGEFTGRFDFSLETSASTAYLQIVNLKNEDTATYFCARYGKFGEMDYWGQGTSVTVSS
VL: IVMTQSPASLAVSLGQRATISCRSSETVDSDGNSFMHWYQQKPGQSPKLLLYLASTLESGVPARFSGSGSRTDFTLTIDPVEADDAATYYCHQNNEDPTFGGGTKLEIKR
notes: Mouse monoclonal antibody from hybridoma 1C4; also called p25 mAb; anti-p25 antibody
binding result (p35): no binding | binding result [1]: no binding | binding result [2]: binds
